Laboratory results as given in US20110059095A1 (Regeneron, published 2011).
Where no end group is shown, it is not given here. The star is where a group is joined. Biotin = O=C1N[C@H]2[C@H](CS[C@H]2CCCCC(=O)*)N1

Columns and labels:
[1] = target: T1, Peptide B (human PAR-2), N-terminal biotinylated (Human); experiment: SPR, peptide immobilized
T1 construct: also called Peptide B N-Term
T1 peptide: Biotin-GGGGSSLIGKVDGTSHVTG

[2] = target: T2, Peptide F (monkey PAR-2), N-terminal biotinylated (Monkey (Macaca mulatta), N-terminal biotin via G4S linker); experiment: SPR, peptide immobilized
T2 construct: also called Peptide F N-Term

[3] = target: T3, Peptide A (human PAR-2), N-terminal biotinylated (Human, N-terminal biotin via G4S linker); experiment: SPR, peptide immobilized
T3 construct: also called Peptide A N-Term
T3 peptide: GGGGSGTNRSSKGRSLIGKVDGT

full length human PAR-2 [4] = target: T4, full length human PAR-2 (human, UniProt P55085 26-397); experiment: cell-based or functional assay
full length human PAR-2 [5] = target: T4, full length human PAR-2; experiment: MSD cell binding
Method: HEK293 cells were transfected with an NF-κB-luciferase-IRES-eGFP reporter plasmid. […] A clonal cell line, named D9, having low background levels of luciferase activity and high levels of eGFP when induced with IL-1β was made by a series of successive sorts of cell populations using flow cytometry. The 293/D9 cell line was then separately transfected with human PAR-2 or mouse PAR-2 to create the stable cell lines 293/D9/h PAR-2rec and 293/D9/m PAR-2rec, respectively.
Cells were plated on MSD high-bind 96 well plates at a density of 4×10⁴ cells/well in PBS and incubated for one hour at room temperature. Cells were then blocked in PBS with 2% BSA and incubated at room temperature for one hour. Anti-PAR-2 antibodies (ranging from 100 nM to 0.098 nM) were serially diluted two-fold in PBS with 0.5% BSA and incubated with the cells for one hour at room temperature followed by washing in PBS with 0.5% BSA. Sulfo-tagged anti-human IgG antibody (MSD) at a concentration of 0.1 μg/ml was then added to the cell/antibody mixture and incubated at room temperature for an additional hour. After another wash, a 1× non-surfactant containing read buffer was added and electro-chemiluminescent signal was read on the MSD Sector Imager. Signal of antibody binding to 293/D9 cells was subtracted from signal to 293/D9/hPAR-2rec or 293/D9/mPAR-2rec cells. Subtracted data were analyzed using a sigmoidal dose-response model in GraphPad Prism and EC₅₀ and Bₘₐₓ values were reported (Table 18). EC₅₀ values are defined as the antibody concentration required to achieve 50% maximal binding (Bₘₐₓ) to cells.

[6] = target: T5, Peptide A (human PAR-2), unbiotinylated (Human); experiment: peptide ELISA titration
T5 construct: also called Peptide A No Biotin
T5 peptide: GTNRSSKGRSLIGKVDGT
Method: (§1) Anti-PAR-2 antibodies were tested for their ability to bind to the PAR-2 peptides. Various PAR-2 Peptides (Table 3) were coated onto 96-well plates at a concentration of 2 μg/ml and incubated overnight followed by blocking in a suitable blocking agent for one hour. […] Purified anti-PAR-2 antibodies were added to the plate coated with PAR-2 peptides to a final concentration ranging from 0.2 to 2.0 μg/ml and incubated for one hour at room temperature. Detection of bound antibodies was determined with Horse-Radish Peroxidase (HRP) conjugated anti-mouse or human IgG (Jackson Immuno Research Lab, West Grove, Pa.) and developed by standard colorimetric response using tetramethylbenzidine (TMB) substrate. Absorbance was read at OD₄₅₀ for 0.1 second.
(§2) In another experiment, selected anti-PAR-2 antibodies cloned onto human IgG4 were tested for binding to unbiotinylated and biotinylated forms of PAR-2 peptides (Peptides A, E, F and G; as described above). […] Absorbance values at 450 nm were analyzed using a sigmoidal dose-response model in GraphPad Prism (GraphPad Software, Inc., La Jolla, Calif.) and EC₅₀ values were reported (Table 9). EC₅₀ values are defined as the antibody concentration required to achieve 50% maximal binding to PAR-2 peptide.

[7] = target: T2, Peptide F (monkey PAR-2), N-terminal …; experiment: peptide ELISA titration
Method: as §1, §2

[8] = target: T6, Peptide A (human PAR-2), C-terminal biotinylated (Human, C-terminal biotin via G4S linker); experiment: peptide ELISA titration
T6 construct: also called Peptide A C-Term
Method: as §1, §2

[9] = target: T3, Peptide A (human PAR-2), N-terminal …; experiment: peptide ELISA titration
Method: as §1, §2

[10] = target: T7, Peptide B (human PAR-2), C-terminal biotinylated (Human, not fully specified); experiment: SPR, peptide immobilized
T7 construct: also called Peptide B C-Term
T7 peptide: SLIGKVDGTSHVTGGGGGS-biotin
Outline: (§3)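 Neutravidin was amine-coupled to a C1 or CM5 chip, and N- or C-terminal biotinylated peptide was captured at low density (<1RU). Purified antibody at 5–100 μg/ml was injected at 50 μl/min for 300 s, with binding and dissociation monitored in real time at 25° C. KD was derived from surface kinetics.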

[11] = target: T6, Peptide A (human PAR-2), C-terminal …; experiment: SPR, peptide immobilized
Outline: as §3

[12] = target: T2, Peptide F (monkey PAR-2), N-terminal …; experiment: SPR, antibody captured
Method: (§4) Equilibrium dissociation constants (KD values) for antigen binding to selected purified PAR-2 antibodies were determined by surface kinetics using a real-time surface plasmon resonance biosensor assay. Antibody was captured on either a rabbit anti-mouse IgG polyclonal antibody (GE Healthcare, Piscataway, N.J.) surface or a goat anti-human IgG polyclonal antibody (Jackson Immuno Research Lab, West Grove, Pa.) surface created through direct amine chemical coupling to a BIACORE™ CM5 sensor chip to form a captured antibody surface. […] Antigen-antibody binding and dissociation were monitored in real time at room temperature. Kinetic analysis was performed to calculate KD and half-life of antigen/antibody complex dissociation (Table 10). For those antibodies where no T_{1/2} value is shown, steady state analysis was used to calculate the KD value. NB: no binding observed under current experimental conditions. ND: not determined.

[13] = target: T5, Peptide A (human PAR-2), unbiotinylated; experiment: SPR, antibody captured
Method: as §4

T4 sequence (P55085 26-397 G138A limits assumed): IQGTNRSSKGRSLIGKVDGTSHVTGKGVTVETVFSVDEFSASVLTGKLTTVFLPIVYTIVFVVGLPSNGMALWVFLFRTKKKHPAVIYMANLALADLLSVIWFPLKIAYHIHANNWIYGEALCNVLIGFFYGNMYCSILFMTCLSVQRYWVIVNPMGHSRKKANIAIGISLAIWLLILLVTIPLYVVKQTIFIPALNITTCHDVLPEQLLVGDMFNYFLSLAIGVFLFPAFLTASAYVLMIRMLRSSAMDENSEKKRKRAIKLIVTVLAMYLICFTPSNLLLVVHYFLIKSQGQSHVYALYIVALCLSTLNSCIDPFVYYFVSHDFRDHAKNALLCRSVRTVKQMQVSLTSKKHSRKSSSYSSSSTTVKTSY
T2 sequence (peptide, as listed by the source): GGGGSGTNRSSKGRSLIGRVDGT

Binder	Kd [1]	T1/2 [1]	Kd [2]	T1/2 [2]	Kd [3]	T1/2 [3]	IC50, NF-kB-luciferase, 20 nM Trypsin (full length human PAR-2 [4])	Bmax (full length human PAR-2 [5])	EC50 (full length human PAR-2 [5])	EC50 [6]	EC50 [7]	EC50 [8]	EC50 [9]	Kd [10]	Kd [11]	T1/2 [11]	Kd [12]	T1/2 [12]	Kd [13]	T1/2 [13]	also measured
H4H584P (antibody, human IgG4, V domains shown, also called H1H584P variable regions) VH: QVQLVESGGGVVQPGRSLRLSCVASGFTFSRYGMHWVRQAPGKGLEWVVVISYDGINKYYADSVKGRFTISRDNSKNTVYLQMNSLRAEDTAVYYCAKGDFWSGYFDYWGQGTLVTVSS VL: DIVMTQTPLSSPVTLGQPASISCRSSQSLVHSDGNTYLSWLHQRPGQPPRLLIYKISNRFSGVPDRFSGSGAGTDFTLQISRVEAEDVGIYYCMQATQFPTFGGGTKVEIK	3.2 nM	30 min	0.565 nM	40 min	0.525 nM	43 min	5.6 nM	26000 MSD Unit	1.45 nM	0.012 nM	0.012 nM	0.015 nM	0.019 nM	1.66 nM	0.688 nM	55 min	93.3 nM	0.23 min	22 nM	0.73 min	T1/2 [10]: 15 min
H4H579P (antibody, human IgG4, V domains shown, also called H1H579P variable regions) VH: QVQLVESGGGVVQPGRSLRLSCVASGFTFSRYGMHWVRQAPGKGLEWLIVISYDGINKYYADSVKGRFTISRDNSKNTVYLQMNSLRAEDTGVYYCAKGDFWSGYFDYWGQGTLVTVSS VL: DIVMTQTPLSSPVTLGQPASISCRSSQSLVHSDGNTYLSWLHQRPGQPPRLLIYKISNRFSGVPDRFSGSGAGTDFTLQISRVEAEDVGIYYCMQGTQFPTFGGGTKVEIK	5.44 nM	55 min	0.796 nM	70 min	1.61 nM	46 min	4.1 nM	25000 MSD Unit	1.86 nM	0.038 nM	0.061 nM	0.076 nM	0.077 nM	0.453 nM	0.143 nM	479 min	49.4 nM	2 min	15 nM	4.1 min	T1/2 [10]: 96 min
H4H581P (antibody, human IgG4, V domains shown, also called mAb H4H581P; H1H581P variable regions) VH: QVQLVESGGGVVQPGRSLRLSCVASGFTFSRYGIHWVRQAPGKGLEWVIVISYDGINKYYADSVKGRFTISRDNSKNTVYLQMNSLRAEDTAVYYCAKGDFWSGYFDYWGQGTLVTVSS VL: DIVMTQTPLSSPVTLGQPASISCRSSQSLVHSDGNTYLSWLHQRPGQPPRLLIYKISNRFSGVPDRFSGSGAGTDFTLQISRVEAEDVGIYYCMQATQFPTFGGGTKVEIK	2.72 nM	38 min	0.272 nM	78 min	0.498 nM	41 min	1.1 nM	28200 MSD Unit	0.652 nM	0.012 nM	0.02 nM	0.028 nM	0.02 nM	0.346 nM	0.237 nM	134 min	36.6 nM	0.53 min	9.44 nM	1.4 min	T1/2 [10]: 49 min
H4H585P (antibody, human IgG4, V domains shown, also called H1H585P variable regions) VH: QVQLVESGGGVVQPGRSLRLSCVASGFTFSRYGMHWVRQAPGKGLEWLIVISYDGINKYYADSVKGRFTISRDNSKNTVYLQMNSLRAEDTAVYYCAKGDFWSGYFDYWGQGTLVTVSS VL: DIVMTQTPLSSPVTLGQPASISCRSSQSLVHSDGNTYLSWLHQRPGQPPRLLIYKISNRFSGVPDRFSGSGAGTDFTLQISRVEAEDVGIYYCMQGTQFPTFGGGTKVEIK	5.41 nM	63 min	0.899 nM	66 min	1.69 nM	48 min	8.9 nM	22500 MSD Unit	1.95 nM	0.017 nM	0.017 nM	0.021 nM	0.026 nM	0.376 nM	0.151 nM	493 min	46.2 nM	2 min	8.78 nM	3.7 min	T1/2 [10]: 123 min

The next lines start with results.

Kd [1]	T1/2 [1]	Kd [2]	T1/2 [2]	Kd [3]	T1/2 [3]	IC50, NF-kB-luciferase, 20 nM Trypsin (full length human PAR-2 [4])	Bmax (full length human PAR-2 [5])	EC50 (full length human PAR-2 [5])	EC50 [6]	EC50 [7]	EC50 [8]	EC50 [9]	Kd [10]	Kd [11]	T1/2 [11]	Kd [12]	T1/2 [12]	Kd [13]	T1/2 [13]	Binder	also measured
0.0272 nM	> 1160 min	1.81 nM	94 min	1.05 nM	189 min	16.9 nM	27500 MSD Unit	5.95 nM	0.01 nM	0.012 nM	0.016 nM	0.019 nM	1.03 nM	0.517 nM	141 min	10.8 nM	20 min	4.95 nM	25.1 min	H4H588N (antibody, human IgG4, V domains shown, also called H2M588N variable regions) VH: EVQLLESGGGLVQPGGSLRLSCAASGFTFSSYAMTWVRQAPGKGLYWVSAISGGRGSAYYADSVKGRFTISRDNSKNTLYLQMNSLRAEDTAVYYCAKEGDSGYDLAYWGRGTLVTVSS VL: DIQMTQSPSSLSASVGDRVTITCRARQGISNNLAWLQQKPGKAPKSLIYAASSLQSGIPSKFSGSGSGTYFTLTISSLQPEDFATYYCQQYKSSPLTFGGGTKVEIK	T1/2 [10]: 70 min
		0.291 nM	73 min	0.412 nM	46 min	14 nM	13300 MSD Unit	2.12 nM	0.008 nM	0.013 nM	0.018 nM	0.015 nM		0.898 nM	34 min	112 nM	0.47 min	37.1 nM	0.37 min	H4H583P (antibody, human IgG4, V domains shown, also called H1H583P variable regions) VH: QVQLVESGGGVVQPGMSLRLSCTASGFTFRRYGMHWVRQAPGKGLEWVAVIWYDGSNKYYADSVKGRFTITRDNSKNTLYLQMNSLRAEDTAIYFCASEITIGDWFDPRGQGTLVTVSS VL: AIQMTQSPSSLSASVGDRVTITCRASQGIRNDLGWFQQKPGKVPKLLIYAASTLHSGVPSRFSGSGFGTDFTLTISSLQPEDFATYYCLQDFNYPLTFGGGTKVEIK	binding result [1]: no binding; binding result [10]: no binding
